Paper PMC8384837, “Expanding the binding specificity for RNA recognition by a PUF domain”

Columns and labels:
PUM1 PUF domain [1] = target: T1, PUM1 PUF domain (Homo sapiens, UniProt Q14671 828-1176); experiment: EMSA; 10 mM HEPES pH 7.3, 50 mM NaCl, 2 mM DTT, 0.05% Tween 20, 0.1 mg/mL BSA, 0.1 mg/mL tRNA; on ice; 10 nM RNA, 0-1 uM protein; details: tags: GST cleaved (HRV3C); label: 32P
[2] = target: Pumilio-1 PUF domain wild type (human, UniProt Q14671 828-1168); experiment: EMSA; 10 mM HEPES pH 7.3, 50 mM NaCl, 2 mM DTT, 0.05% Tween 20, 0.1 mg/ml BSA, 0.1 mg/ml yeast tRNA; ~10 nM RNA, 0-1 uM protein, 1 h on ice; 1.2% agarose gel, 1x TBE, room temperature; details: protein: recombinant; tags: N-terminal GST (pGEX-6P-1) removed by HRV3C protease; label: 5' 32P
[3] = target: PUM1 PUF domain R1-QFR R2-VFQ (Homo sapiens, UniProt Q14671 828-1176, S863Q;R864F;Q867R;N899V;Y900F); experiment: EMSA; 10 mM HEPES pH 7.3, 50 mM NaCl, 2 mM DTT, 0.05% Tween 20, 0.1 mg/mL BSA, 0.1 mg/mL tRNA; on ice; 10 nM RNA, 0-1 uM protein; details: tags: GST cleaved (HRV3C); label: 32P
[4] = target: T2, PUM1 PUF domain R3-THE R4-TFR (Homo sapiens, UniProt Q14671 828-1176, C935T;R936H;Q939E;N971T;H972F;Q975R); experiment: as above; details: tags: GST cleaved (HRV3C); label: 32P
PUM1 PUF domain [5] = target: T1, PUM1 PUF domain; experiment: as above; details: tags: GST cleaved (HRV3C); label: 32P; remark: listed apart in the source
[6] = target: T2, PUM1 PUF domain R3-THE R4-TFR; experiment: yeast three-hybrid, YBZ-1, SC-Leu-His + 0.5 mM 3-AT, 4 days; details: tags: N-Gal4 AD-HA kept; label: inside an RPR1-promoter hybrid RNA with tandem MS2 sites
Outline: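 Pumilio-1 PUF domain libraries, randomized (NNK) at the three base-contacting residues of each repeat, were co-expressed with matching RNA elements from a centromeric plasmid in strain YBZ-1 (LexA–MS2 coat fusion, HIS3 reporter). Transformants were plated on SC-Leu (input) and SC-Leu-His + 0.5 mM 3-AT (selection) for four days, and repeat regions were PCR-amplified and Illumina-sequenced. The interaction score is the log2 change in variant frequency from input to selection, with pseudocount 1 where absent.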

T1 sequence (Q14671 828-1176): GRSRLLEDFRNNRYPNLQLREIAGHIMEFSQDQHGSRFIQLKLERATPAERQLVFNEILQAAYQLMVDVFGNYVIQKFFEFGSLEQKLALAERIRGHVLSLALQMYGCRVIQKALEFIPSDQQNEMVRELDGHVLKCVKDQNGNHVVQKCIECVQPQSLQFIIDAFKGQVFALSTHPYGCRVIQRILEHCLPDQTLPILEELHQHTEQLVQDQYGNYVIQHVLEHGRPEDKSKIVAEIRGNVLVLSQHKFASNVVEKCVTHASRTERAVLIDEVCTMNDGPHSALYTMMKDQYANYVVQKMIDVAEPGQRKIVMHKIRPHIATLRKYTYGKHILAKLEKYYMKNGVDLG
T2 sequence (Q14671 828-1176 C935T/R936H/Q939E/N971T/H972F/Q975R): as the sequence (Q14671 828-1176) above, with C108T, R109H, Q112E, N144T, H145F, Q148R counted along it
Pumilio-1 PUF domain wild type, sequence (Q14671 828-1168): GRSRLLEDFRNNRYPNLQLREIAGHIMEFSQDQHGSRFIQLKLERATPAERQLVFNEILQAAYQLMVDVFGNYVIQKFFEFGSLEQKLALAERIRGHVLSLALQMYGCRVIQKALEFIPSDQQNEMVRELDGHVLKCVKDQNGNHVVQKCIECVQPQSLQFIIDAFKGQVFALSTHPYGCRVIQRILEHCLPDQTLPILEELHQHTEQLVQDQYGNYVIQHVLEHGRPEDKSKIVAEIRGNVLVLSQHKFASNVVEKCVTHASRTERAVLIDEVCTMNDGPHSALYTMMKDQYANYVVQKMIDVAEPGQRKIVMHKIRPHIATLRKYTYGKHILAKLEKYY
PUM1 PUF domain R1-QFR R2-VFQ, sequence (Q14671 828-1176 S863Q/R864F/Q867R/N899V/Y900F): as the sequence (Q14671 828-1176) above, with S36Q, R37F, Q40R, N72V, Y73F counted along it

B1: UGUAAAAC (ssRNA)
RNA: GGUAAGUGUAAAACGUCUGCAU
B1 was tested, and the qualitative (PUM1 PUF domain [1]) was greater than 1000 nM.

B2: wild-type NRE RNA (ssRNA)
RNA: GGUAAGUGUAAAUAGUCUGCAU
Work on B2 yielded a Kd [2] of roughly 80 nM.

B3: UGUAAAUA (ssRNA)
RNA: GGUAAGUGUAAAUAGUCUGCAU
B3 gave a qualitative [3] greater than 1000 nM, a qualitative [4] greater than 1000 nM and a Kd (PUM1 PUF domain [5]) of roughly 80 nM.

B4: UGUACGUA (ssRNA)
RNA: GGCUAGAACUAGUGGAUCCCCCGGCGCCCGGCGGCUCGAGCCCGGGUAAGUGUACGUAGUCUGCAUGCCGCCGGGCGCCAUGCCUGCAGGUCGACUCUAGAAAACAUG
With B4 the binding signal [6] was 6.65 log2 enrichment (interaction score).

B5: QFR/VFQ target RNA (ssRNA)
RNA: GGUAAGUGUAAAACGUCUGCAU
B5: no binding [2].

B6: UGUACGUA (ssRNA)
RNA: GGUAAGUGUACGUAGUCUGCAU
With B6 the qualitative (PUM1 PUF domain [1]) was greater than 1000 nM.
